{
  "source": "paper PMC8217473",
  "about": "(2021)",
  "binders": {"B1": {"name": "3N39 mutant sACE2-His (domain or fragment)", "chain": "QSTIEEQVETFLDNFNHKAEDLFYQSSLASWNYNTNITEENVQNMNIAGDKWSAFLKEQSTFAQMYPLQEIQHLTVKLQLQALQQNGSSVLSEDKSKRLNTILNTMSTIYSTGKVCNPDNPQECLLLEPGLNEIMANSLDYNERLWAWESWRSEVGKQLRPLYEEYVVLKNEMARANHYEDYGDYWRGDYEVNGVDGYDYSRGQLIEDVEHTFEEIKPLYEHLHAYVRAKLMNAYPSYISPIGCLPAHLLGDMWGRFWTNLYSLTVPFGQKPNIDVTDAMVDQAWDAQRIFKEAEKFFVSVGLPNMTQGFWENSMLTDPGNVQKAVCHPTAWDLGKGDFRILMCTKVTMDDFLTAHHEMGHIQYDMAYAAQPFLLRNGANEGFHEAVGEIMSLSAATPKHLKSIGLLSPDFQEDNETEINFLLKQALTIVGTLPFTYMLEKWRWMVFKGEIPKDQWMKKWWEMKREIVGVVEPVPHDETYCDPASLFHVSNDYSFIRYYTRTLYQFQFQEALCQAAKHEGPLHKCDISNSTEAGQKLFNMLRLGKSEPWTLALENVVGAKNMNVRPLLNYFEPLFTWLKDQNKNSFVGWSTDWSPYAD"}, "B2": {"name": "3N39v2 mutant sACE2-His (domain or fragment)", "chain": "B1 chain with E9K, I47N, H73N"}},
  "key": {"[1]": {"biological_target": "T1, RBD-Fc (receptor binding domain of SARS-CoV-2 spike fused to Fc) (SARS-CoV-2, UniProt P0DTC2)", "test": "SPR"}, "[2]": {"biological_target": "T1, RBD-Fc (receptor binding domain of …)", "test": "SPR", "remark": "listed apart in the source"}},
  "note": "Numbering of substitutions follows the chain as printed. Where two headings read alike, the source gives them in different places.",
  "data": [
    {"binder": "B1", "values": [
      {"measurement": "Kd", "setting": "[1]", "value": 0.32, "unit": "nM"},
      {"measurement": "Kd", "setting": "[2]", "value": 0.29, "unit": "nM"}
    ]},
    {"binder": "B2", "values": [
      {"measurement": "Kd", "setting": "[1]", "value": 0.54, "unit": "nM"}
    ]}
  ]
}
